# Source: the RNAGym collection of RNA variant scans (doi:10.7554/elife.80360)
# B1: HDV Ribozyme (parent)
# chain: GGCCGGCAUGGUCCCAGCCUCCUCGCUGGCGCCGGCUGGGCAACAUUCCGAGGGGACCGUCCCCUCGGUAAUGGCGAAUGGGACCCA
# Variants of: B1
# Assay: self-cleavage, relative activity (ratio to wild type); higher = more cleavage; co-transcriptional
row,Variant,self-cleavage
1,U9C C26A,1.25
2,U9C G68U,0.655
3,U9C G68A,1.17
4,U9G U46G,0.646
5,U9G U46A,0.312
6,U9G A51C,1.03
7,U9G A51U,1.22
8,U9G A51G,0.95
9,U9A G59C,1.03
10,U9A G59A,1.19
11,U9G G35U,0.653
12,U9G G35A,0.782
13,U9G C22G,0.208
14,U9G C13U,1.07
15,U9G U69C,1.25
16,G10A C13G,0.104
17,G10A A87U,0.779
18,U9A C85U,0.906
19,U9C C85U,1.07
20,U9C C85G,0.731
21,U9A U20A,0.185
22,U9A U20G,0.151
23,U9A U20C,0.128
24,U9G C48U,1.05

row,Variant,self-cleavage
1,U9A G29U,0.0639
2,U9A G29A,0.0678
3,U9C C75U,0.138
4,U9C C75A,0.115
5,U9G C49A,1.11
6,U9G C49U,0.776
7,U9G G50C,1.01
8,U9G G34C,0.175
9,U9A G52A,0.99
10,U9C C64U,0.923
11,U9C C44U,0.739
12,U9C C44A,0.594
13,U9G U79G,0.923
14,U9G U79C,0.748
15,U9C G74A,0.653
16,U9C G25C,0.0615
17,U9C G25A,0.277
18,U9G A78G,0.166
19,U9G A78C,0.208
20,U9A G34U,0.374
21,U9A U60A,0.923
22,U9C A83G,0.665
23,U9C A83U,0.525
24,U9G G59U,1.06

row,Variant,self-cleavage
1,U9G G59A,1.16
2,U9G G38C,0.302
3,U9G G38U,0
4,U9C C86G,1.14
5,U9C C86U,1.35
6,U9G C61G,1.02
7,G10A C22A,0.0528
8,G10A C22G,0.0171
9,G10A C22U,0.157
10,U9C C22G,0
11,U9C C22U,0.727
12,U9A G11A,0.539
13,U9A G11C,0.609
14,G10A C33A,0.111
15,G10A C33G,0.0767
16,G10A C33U,0.554
17,U9G C15A,1.21
18,U9G C15U,0.962
19,U9G G76U,1.13
20,U9G G76A,1.23
21,U9G G76C,1.14
22,U9G C63U,1.07
23,U9C C61A,1.03
24,U9C C61U,0.81

row,Variant,self-cleavage
1,U9C A77C,0.364
2,U9C C21U,0.214
3,U9C C21A,0.0639
4,U9C C21G,0.277
5,U9A G55C,1.26
6,U9G C66G,1.19
7,U9G C66U,0.727
8,U9A G50C,0.898
9,U9A G50U,1.31
10,U9A G50A,1.12
11,U9G G31C,0.378
12,U9G C32U,0.623
13,U9G C32A,0.277
14,G10A C32G,0.0966
15,G10A C32A,0.153
16,G10A C32U,0.652
17,U9A U46A,0.743
18,U9G G28A,0.0573
19,U9G G28C,0.222
20,U9C G38C,0.107
21,U9G C30G,0.145
22,U9G C30U,0.853
23,U9G C85U,1.14
24,U9G C85G,0.895

row,Variant,self-cleavage
1,U9G A45G,0.684
2,U9G A45U,0.692
3,U9C U20A,0
4,U9C U20C,0
5,G10A C14U,0.59
6,U9G G80A,0.516
7,U9G G80U,0.289
8,U9C G52C,1.02
9,U9A G31U,0.208
10,U9A G31A,0.554
11,U9C G80C,0.256
12,U9C G80A,0.277
13,U9C G80U,0.193
14,U9C C15U,0.776
15,U9C C15A,0.748
16,U9C G50C,0.886
17,U9C G50U,1.02
18,U9C C49G,1.03
19,U9C C49U,0.959
20,U9C C49A,0.703
21,U9C A43U,0.378
22,U9C A43C,0.378
23,U9A U79C,0.237
24,U9A U79G,0.529

row,Variant,self-cleavage
1,U9A U47C,0.997
2,U9C C48U,0.748
3,U9C C48G,1.44
4,G10A C30U,0.248
5,G10A C30A,0.0913
6,U9G A42C,0.453
7,U9C U46A,1.06
8,U9G G53C,0.939
9,U9A G53A,1.2
10,U9A G53U,1.28
11,U9G U60C,0.748
12,U9G U60A,0.831
13,G10A A42C,0.0875
14,G10A A42G,0.251
15,G10A A42U,0.244
16,U9G A77C,0.185
17,U9C C19G,0.0519
18,U9C C19U,0.208
19,G10A A45C,0.219
20,G10A A45G,0.598
21,G10A A45U,0.534
22,U9C U69C,0.969
23,U9C U69G,1.22
24,U9C U69A,1.02

row,Variant,self-cleavage
1,U9C G40C,0.135
2,U9C G40A,0.997
3,U9C G17U,0.914
4,U9C G17C,0.415
5,U9C G17A,1.08
6,U9G C75U,0.222
7,G10A A16U,0.929
8,G10A A16C,0.867
9,G10A A16G,0.584
10,U9C C33U,0.895
11,U9A U12G,1.06
12,U9C G53A,1.01
13,U9C G53U,1.26
14,U9A G40A,1.02
15,U9A G40U,0.897
16,U9C C62G,0.166
17,U9G U37A,0
18,U9G G73U,0.0831
19,U9G A43U,0.886
20,U9A G25A,0.426
21,U9A G25U,0.175
22,U9C U60G,0.723
23,G10A A70U,0.533
24,U9G C24U,0.767

row,Variant,self-cleavage
1,U9G C24A,0.525
2,U9G C86A,0.959
3,G10A A56U,0.845
4,U9C C66G,1.04
5,U9G G11U,0.532
6,U9G G11C,0.594
7,U9G G39C,0.196
8,U9G G39U,0.807
9,U9G C19U,0.119
10,U9G C19G,0
11,U9C C18A,0.128
12,U9C C18G,0.138
13,U9C C18U,0.457
14,U9C C14A,0.982
15,U9A G39A,0.665
16,U9G A56U,1.01
17,U9C A42C,0.475
18,U9C A42G,0.886
19,U9G C33G,0.104
20,U9G C33A,0.293
21,U9C U65G,1.37
22,U9C U65C,1.22
23,U9C U65A,1.25
24,U9A G76A,0.955

row,Variant,self-cleavage
1,U9A G76C,1.07
2,U9C A70C,0.997
3,U9C G28U,0.123
4,U9C G28C,0.0573
5,U9G G54U,0.831
6,U9C A16U,1.08
7,U9C A16C,0.519
8,U9C C58U,0.886
9,U9C C58A,1.11
10,U9A G74C,0.0573
11,U9A G74U,0.585
12,U9C G54A,1.08
13,U9A U23G,0.7
14,U9G U27G,0.935
15,U9G U27C,0.68
16,U9G U27A,0.437
17,U9C G82U,0.201
18,U9G C44U,0.443
19,U9C A45G,0.95
20,U9A G35A,0.665
21,U9A G35C,0.44
22,U9C G11U,0.383
23,U9C G11C,0.266
24,G10A,0.779

row,Variant,self-cleavage
1,U9C C84U,0.415
2,U9G A16C,0.712
3,U9G A16G,1.42
4,G10A C24A,0.367
5,U9G C21G,0
6,U9A U65G,1.11
7,U9A U65A,1.05
8,U9C C41U,1.05
9,U9G U23G,0.95
10,U9G U23C,0.923
11,U9G U23A,0.782
12,U9A U27G,1.13
13,U9G C58G,1.02
14,U9A U69A,0.87
15,U9A U69C,0.802
16,U9A G28C,0
17,U9A G28U,0.0898
18,G10A A43C,0.176
19,U9G C57G,1.19
20,U9G C57A,0.831
21,U9G U65C,1.17
22,U9G U65A,1.27
23,U9G C18A,0.0923
24,U9G C18G,0

row,Variant,self-cleavage
1,U9G C18U,0.504
2,U9A G17U,0.383
3,U9A G17C,0.297
4,U9A G68A,0.955
5,U9A G68C,1.16
6,U9A G68U,1.08
7,G10A C15G,0.166
8,U9C G59U,1.17
9,U9C G59C,1.09
10,U9C G59A,1.05
11,U9G C26G,0.88
12,G10A A77G,0.53
13,U9C A87C,0.813
14,U9G G10U,0.987
15,U9G G10C,0.489
16,U9G U47C,1.04
17,U9G C84G,0.222
18,U9C G10U,0.731
19,U9G C64G,0.831
20,U9C A56G,0.935
21,U9C A56U,1.04
22,U9C C30G,0.0462
23,U9C G81A,0.415
24,U9C G81U,0.237

row,Variant,self-cleavage
1,U9A G54U,1.06
2,U9A G54C,0.935
3,U9A G82U,0.375
4,U9A G82A,0.425
5,U9A G73U,0.244
6,U9A G73A,0.425
7,U9A G73C,0.227
8,U9A G80C,0.189
9,U9A G80A,0.402
10,G10A A78U,0.0382
11,G10A A78C,0.113
12,U9C A71C,0.791
13,U9C A71U,0.969
14,U9A U37C,1.07
15,U9G A87U,0.853
16,G10A A83G,0.258
17,U9A U72G,0.787
18,U9A U72C,0.688
19,G10A C26U,0.874
20,U9C C57A,1.09
21,U9A G81U,0.332
22,U9A G10C,0.875
23,U9A G10U,0.855
24,U9C C13U,0.453

row,Variant,self-cleavage
1,U9C C13G,0.158
2,U9C C13A,0.158
3,U9A G67A,0.937
4,U9A G67U,0.849
5,U9C U47C,0.969
6,U9C U47G,1.42
7,U9G G52U,1.03
8,U9G G25C,0
9,U9C C36G,0
10,U9G G81C,0.443
11,U9C G76A,1.05
12,U9C G76U,1.05
13,G10A A51C,0.623
14,G10A A51G,0.546
15,U9C U72G,0.582
16,U9C A51G,0.962
17,G10A C19G,0.111
18,G10A C19A,0.0489
19,U9G A83C,0.554
20,U9G A83U,0.453
21,U9G A83G,0.525
22,U9C U27A,0.935
23,U9C U27C,0.554
24,U9C G31C,0.598

row,Variant,self-cleavage
1,U9G U12A,1.11
2,U9G U12G,1.11
3,U9G G82U,0.767
4,U9C C32U,0.862
5,U9C C32A,0
6,U9C U37C,0.978
7,U9C G39C,0.287
8,U9A G38C,0.237
9,U9A G38A,0.233
10,U9A G38U,0.237
11,U9G C62G,0.462
12,U9G G67U,1.25
13,U9C A78U,0.185
14,U9C A78G,0.914
15,U9G U20A,0
16,U9G G74U,0.415
17,U9C U79G,0.519
18,U9G G55U,1.05
19,U9G G55C,0.665
20,G10A C21A,0
21,G10A C21G,0.126
22,G10A C21U,0.0453
